Measured values reported in patent US20110195896A1 (CASE WESTERN RESERVE UNIVERSITY, published 2011).
Where a chain is given by its changes, count along the chain named. Blank lines part the entries; values can stand above or below the binder they belong to. Ends that are not written are not given here.

Experiments:
Type I IGF receptor [1] = molecular target: T1, Type I IGF receptor (UniProt P08069 31-1367); test: competitive displacement of labelled tracer from IGFR
T1 construct: also called IGF-I RECEPTOR; Insulin-like Growth Factor Receptor
Method: Receptor-Binding Assays. […] This assay employs the purified epitope-tagged receptor (IR-A, IR-B, or IGFR) using a microtiter-plate antibody-capture assay as known in the art. The epitope tag consists of three tandem repeats of the FLAG epitope. Microtiter strip plates (Nunc Maxisorb) were incubated overnight at 4° C. with anti-FLAG IgG (100 μl/well of […] in phosphate-buffered saline). Binding data were analyzed by a single-site heterologous competition binding model. A corresponding microtiter plate antibody assay using the epitope-tagged IGF Type I receptor was employed to assess cross-binding of analogues to this homologous receptor.

Type I IGF receptor [2] = molecular target: T1, Type I IGF receptor; test: competitive displacement of 125I-IGF-1 from IGFR

- Kd (Type I IGF receptor [1]): 27.6 nM
- Kd (Type I IGF receptor [2]): 27.6 nM
B1: [His^A8, Asp^B28, Pro^B29]-SCI (57-mer single-chain insulin analogue, linker GGGPRR) (ligand)
chain: FVNQHLCGSHLVEALYLVCGERGFFYTDPTGGGPRRGIVEQCCHSICSLYQLENYCN
modifications: ends and bridges not checked; cysteine pairing not given here
notes: Made by total chemical synthesis and native ligation

- Kd (Type I IGF receptor [1]): 9.89 nM
B2: His^A8, Asp^B10, Asp^B28, Pro^B29 SCI (ligand)
chain: B1 chain with H10D
notes: also called SCI (His^A8, Asp^B10, Asp^B28, and Pro^B29); SCI containing the substitution Asp^B10
